{"source": "paper PMC9395280", "target": "SARS-CoV-2 WT RBD protein (SARS-CoV-2, wild-type (ancestral)) (UniProt P0DTC2)", "assay": "SPR", "data": [{"substance": "P2C-1F11-I27F (antibody)", "values": [{"measurement": "fold decrease of affinity against P2C-1F11", "result": "> 7", "unit": "fold"}]}]}
